The target in assay [1] is T1, PARM-pWT (364-570; R455K, C483A, C501A, Y524W, C566A) (Homo sapiens, UniProt Q99767, C483A/C501A/C566A/R455K/Y524W).
T1 construct: made in house; host or cells: semisynthesis, three-segment approach (expressed fragments plus synthetic segment)
T1 sequence (Q99767 364-570 R455K/C483A/C501A/Y524W/C566A): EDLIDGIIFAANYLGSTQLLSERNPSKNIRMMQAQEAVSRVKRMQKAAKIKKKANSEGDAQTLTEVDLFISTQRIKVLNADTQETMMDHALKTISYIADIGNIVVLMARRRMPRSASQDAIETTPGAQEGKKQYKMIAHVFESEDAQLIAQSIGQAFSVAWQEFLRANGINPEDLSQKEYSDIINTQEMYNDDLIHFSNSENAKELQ
Nature of the assay: Stopped flow binding kinetics, APP A-to-E variants to PARM-pWT. How it is done: (§1) Kinetic binding rate constants were obtained using an upgraded SX17 stopped flow spectrometer (Applied Photophysics), and all experiments were conducted at 25 °C in 500 mM NaCl and 25 mM HEPES (pH 7.4). The relatively high NaCl concentration was used to improve the solubility of the proteins. The change in tryptophan fluorescence was measured using a band-pass filter (excitation at 280 nm and emission at 330 ± 30 nm) when mixing varying concentrations (2–50 μM) of the dansyl peptides with 1 μM protein or 0.5 μM semisynthetic proteins. […] For PTB variants, we used the kobs value from the fast kinetic phase for the analysis. […] We report the errors in kon and koff from the curve fitting. […] For these koff determinations, we report the standard error of the mean of three replicates. Φ values were defined as ΔΔGTS/ΔΔGeq, where ΔΔGTS = RT ln(kon^WT/kon^mut.) and ΔΔGeq = RT ln(Kd^mut./Keq^WT). Calculated coupling free energies were defined as ΔΔΔGEq = RT ln(Kd^mut.:WTKd^WT:mut./Kd^WT:WTKd^mut.:mut.) or ΔΔΔGTS = RT ln(kon^WT:WTkon^mut.:mut./kon^mut.:WTkon^WT:mut.) as previously described.[27] Propagated errors are reported.

Assay [2] has as its target T2, Mint2 PARM 364-570 (Y524W, Y543A) (Homo sapiens, UniProt Q99767, Y524W/Y543A).
T2 sequence (Q99767 364-570 Y524W/Y543A): T1 sequence (Q99767 364-570 R455K/C483A/C501A/Y524W/C566A) with K92R, A120C, A138C, Y180A, A203C
The assay can be described thus: Stopped flow binding kinetics, APP peptides to PARM^Y543A. Also noted: made in house; host or cells: Escherichia coli BL21(DE3)pLysS. How it is done:
as §1

Assay [3] addresses T3, Mint2 PTB 364-538 (without the ARM linker) (Homo sapiens, UniProt Q99767, Y524W).
T3 construct: made in house; host or cells: Escherichia coli BL21(DE3)pLysS
T3 sequence (Q99767 364-538 Y524W): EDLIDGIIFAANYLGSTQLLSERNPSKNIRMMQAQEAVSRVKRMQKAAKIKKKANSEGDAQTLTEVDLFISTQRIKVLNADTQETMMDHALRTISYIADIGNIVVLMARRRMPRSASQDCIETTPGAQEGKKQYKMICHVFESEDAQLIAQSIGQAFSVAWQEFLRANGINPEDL
The assay can be described thus: Stopped flow binding kinetics, APP peptides to PTB. How it is done:
as §1

The target in assay [4] is T4, Mint2 PARM 364-570 (Y524W), pWT PARM (PTB domain and ARM linker) (Homo sapiens, UniProt Q99767, Y524W).
T4 construct: made in house; host or cells: Escherichia coli BL21(DE3)pLysS
T4 sequence (Q99767 364-570 Y524W): T1 sequence (Q99767 364-570 R455K/C483A/C501A/Y524W/C566A) with K92R, A120C, A138C, A203C
The assay can be described thus: Stopped flow binding kinetics, APP peptides to PARM (pseudo-wild type). The protocol: as §1

Assay [5] addresses Mint2 PARMWT 364-570 (Homo sapiens, UniProt Q99767). The assay can be described thus: biochemical.
Assay [6] has as its target T2, Mint2 PARM 364-570 (Y524W, Y543A). The assay can be described thus: biochemical.
Assay [7] has as its target T5, Mint2 PARM 364-570 (Y524W, Y543E) (Homo sapiens, UniProt Q99767, Y524W/Y543E).
T5 sequence (Q99767 364-570 Y524W/Y543E): T1 sequence (Q99767 364-570 R455K/C483A/C501A/Y524W/C566A) with K92R, A120C, A138C, Y180E, A203C
Nature of the assay: biochemical.

Assay [8] deals with pseudo-wild type (pWT) PARM domain of Mint2 (residues 364-570, Y524W) (human, UniProt Q99767 364-570, Y524W). Nature of the assay: stopped-flow fluorescence kinetics. Conditions: both partners purified.
Assay [9] has as its target PARM^Y543A (human, UniProt Q99767 364-570, Y524W | Y543A). The assay can be described thus: stopped-flow fluorescence kinetics. The following applies: both partners purified.
For assay [10], the target named is PARM^Y543E (human, UniProt Q99767 364-570, Y524W | Y543E). The assay can be described thus: stopped-flow fluorescence kinetics. Conditions: both partners purified.
The target in assay [11] is PTB without the ARM linker (Mint2 residues 364-538) (human, UniProt Q99767 364-538, Y524W). The assay can be described thus: stopped-flow fluorescence kinetics. The following applies: both partners purified.

Changes are numbered by the printed parent chain. Names and notes keep the numbering of the source. Where a SMILES comes first, the peptide text is derived from it. Where no end group is shown, it is not given here. [ ]: non-standard residue; d: D form. The star is where a group is joined. Dansyl = CN(C)c1cccc2c(S(=O)(=O)*)cccc12; PhLac = O=C(O)[C@@H](O)Cc1ccccc1

The record followed here is PMC8291497 (ACS Chemical Biology, 2021).

In general, koff refers to the rate constant with which the complex falls apart. Read a low koff as slow dissociation. Broadly, the kon is the second-order rate constant of association. Usually Ki stands for the dissociation constant of the complex between target and ligand, obtained from inhibition or displacement.

Sequence of PARM^Y543E (Q99767 364-570 Y524W/Y543E): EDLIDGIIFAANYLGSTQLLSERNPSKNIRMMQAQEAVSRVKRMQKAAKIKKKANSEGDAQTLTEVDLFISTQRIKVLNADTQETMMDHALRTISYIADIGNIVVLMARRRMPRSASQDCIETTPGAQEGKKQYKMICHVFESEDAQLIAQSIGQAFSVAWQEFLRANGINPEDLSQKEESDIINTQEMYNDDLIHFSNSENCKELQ
Sequence of pseudo-wild type (pWT) PARM domain of Mint2 (residues 364-570, Y524W) (Q99767 364-570 Y524W): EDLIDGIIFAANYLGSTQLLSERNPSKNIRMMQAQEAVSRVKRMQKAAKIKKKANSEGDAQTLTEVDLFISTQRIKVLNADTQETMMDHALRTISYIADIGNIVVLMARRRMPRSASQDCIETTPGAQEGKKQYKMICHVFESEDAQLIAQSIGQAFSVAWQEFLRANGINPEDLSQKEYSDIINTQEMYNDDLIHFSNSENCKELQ
Sequence of PARM^Y543A (Q99767 364-570 Y524W/Y543A): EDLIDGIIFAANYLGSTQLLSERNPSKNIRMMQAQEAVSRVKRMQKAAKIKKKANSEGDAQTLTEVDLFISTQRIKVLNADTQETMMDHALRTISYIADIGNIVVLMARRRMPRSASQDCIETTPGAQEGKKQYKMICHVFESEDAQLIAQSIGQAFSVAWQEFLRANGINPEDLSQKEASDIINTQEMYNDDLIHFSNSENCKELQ
Sequence of Mint2 PARMWT 364-570 (Q99767 364-570): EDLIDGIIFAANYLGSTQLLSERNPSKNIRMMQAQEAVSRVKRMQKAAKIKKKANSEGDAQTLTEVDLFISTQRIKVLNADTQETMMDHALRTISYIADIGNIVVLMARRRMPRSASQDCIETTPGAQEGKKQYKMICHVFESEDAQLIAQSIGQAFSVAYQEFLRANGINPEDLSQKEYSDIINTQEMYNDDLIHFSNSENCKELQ

In assay [1], `C[C@@H](O)[C@H](NC(=O)[C@@H]1CCCN1C(=O)[C@H](CC(N)=O)NC(=O)[C@H](CCC(=O)O)NC(=O)[C@H](Cc1ccc(O)cc1)NC(=O)CNC(=O)[C@H](CC(N)=O)NC(=O)CNC(=O)[C@H](CC(N)=O)NC(=O)[C@H](CC(N)=O)NS(=O)(=O)c1cccc2c(N(C)C)cccc12)C(=O)N[C@@H](Cc1ccc(O)cc1)C(=O)N[C@@H](CCCCN)C(=O)N[C@@H](Cc1ccccc1)C(=O)O[C@@H](Cc1ccccc1)C(=O)N[C@@H](CCC(=O)O)C(=O)O` [Peptide F765φ] (Dansyl-NNGNGYENPTYKF[PhLac]E-OH; N-terminus and C-terminus assumed) gave a Kd of 40 ± 9 µM and a dissociation rate constant (koff) of 27 s⁻¹. In addition, in [1] (APP A-to-E variant vs Dansyl-APPWT), the “F (Φ value, ΔΔGTS/ΔΔGeq)” value is around 0. For the same molecule, in assay [1] (pH 7.4), the kon came to 690000 M⁻¹ s⁻¹.

Consider `C[C@@H](O)[C@H](NC(=O)[C@@H]1CCCN1C(=O)[C@H](CC(N)=O)NC(=O)[C@H](CCC(=O)O)NC(=O)[C@H](Cc1ccc(O)cc1)NC(=O)CNC(=O)[C@H](CC(N)=O)NC(=O)CNC(=O)[C@H](CC(N)=O)NC(=O)[C@H](CC(N)=O)NS(=O)(=O)c1cccc2c(N(C)C)cccc12)C(=O)N[C@@H](Cc1ccc(O)cc1)C(=O)NCC(=O)N[C@@H](Cc1ccccc1)C(=O)N[C@@H](Cc1ccccc1)C(=O)N[C@@H](CCC(=O)O)C(=O)O` [Peptide K763G], for which the Kd in assay [2] was determined as 10 ± 0.3 µM.

For `C[C@@H](O)[C@H](NC(=O)[C@@H]1CCCN1C(=O)[C@H](CC(N)=O)NC(=O)[C@H](CCC(=O)O)NC(=O)[C@H](Cc1ccccc1)NC(=O)CNC(=O)[C@H](CC(N)=O)NC(=O)CNC(=O)[C@H](CC(N)=O)NC(=O)[C@H](CC(N)=O)NS(=O)(=O)c1cccc2c(N(C)C)cccc12)C(=O)N[C@@H](Cc1ccc(O)cc1)C(=O)N[C@@H](CCCCN)C(=O)N[C@@H](Cc1ccccc1)C(=O)N[C@@H](Cc1ccccc1)C(=O)N[C@@H](CCC(=O)O)C(=O)O` [Peptide Y757F], in assay [3], the Kd came out at 600 nM.

The molecule `C[C@@H](O)[C@H](NC(=O)[C@@H]1CCCN1C(=O)[C@H](CC(N)=O)NC(=O)[C@H](CCC(=O)O)NC(=O)[C@H](Cc1ccc(O)cc1)NC(=O)CNC(=O)[C@H](CC(N)=O)NC(=O)CNC(=O)[C@H](CC(N)=O)NC(=O)[C@H](CC(N)=O)NS(=O)(=O)c1cccc2c(N(C)C)cccc12)C(=O)N[C@@H](Cc1ccccc1)C(=O)N[C@@H](CCCCN)C(=O)N[C@@H](Cc1ccccc1)C(=O)N[C@@H](Cc1ccccc1)C(=O)N[C@@H](CCC(=O)O)C(=O)O` [Peptide Y762F] displayed a Kd in assay [4] of 4 µM.

Turning to “Dansyl-NNG-NGψENPTYKFFE [Peptide Y757ψ, dansyl-APP peptide with amide-to-ester backbone modification at Y757]”, in assay [1] (most likely due to a kobs outside the range of the instrument (>300 s^–1)), the “kinetic transient in the stopped flow experiment” value is on record as “did not give a kinetic transient”.

Consider NGYENPTYKFFE [APPWT (12-mer)], for which the Ki is 3.2 µM in assay [5], 1100 nM in assay [6] and 1100 nM in [7].

For Dansyl-NGYENPTYKAFE [dansyl-APP F764A], the binding result in assay [8], in assay [9], in assay [10] and in assay [11] was “binds” throughout.

Turning to Dansyl-NGYENPTYKFAE [dansyl-APP F765A], the binding result in assay [8], in [9], in [10] and in assay [11] was “binds” throughout.

On to Dansyl-NGYENPTYAFFE [dansyl-APP K763A], for which the binding result in [8], in assay [9], in assay [10] and in assay [11] was “binds” throughout.

Consider Dansyl-NGFENPTYKFFE [dansyl-APP Y757F], for which the binding result in [8], in assay [9], in [10] and in assay [11] was “binds” throughout.

In the case of Dansyl-NGYENPTYKGFE [dansyl-APP F764G], the binding result in [8], in [9], in assay [10] and in assay [11] was “binds” throughout.

For the molecule Dansyl-NGYENPTYKFGE [dansyl-APP F765G], the binding result in assay [8], in assay [9], in assay [10] and in assay [11] was “binds” in each case.

As for Dansyl-NGYENPTYGFFE [dansyl-APP K763G], the binding result in assay [8], in assay [9], in assay [10] and in assay [11] was “binds” in each case.

Take Dansyl-NGYENATYKFFE [dansyl-APP P760A]: the binding result in assay [8], in assay [9], in [10] and in assay [11] was “binds” throughout.

With Dansyl-NGYENGTYKFFE [dansyl-APP P760G], the binding result in [8], in assay [9], in assay [10] and in assay [11] was “binds” in each case.

For the molecule Dansyl-NGYENPTFKFFE [dansyl-APP Y762F], the binding result in assay [8], in [9], in assay [10] and in [11] was “binds” throughout.
